Assay results published in patent US20130295110A1.

What was measured:
[1] = molecular target: full length human PSMA (human) (UniProt Q04609); assay: FACS, 15 ug/ml on LNCaP cells, PE goat anti-mouse IgG (control of FIG. 13 study)
[2] = molecular target: full length human PSMA (human) (UniProt Q04609); assay: FACS, 15 ug/ml on LNCaP cells, PE goat anti-mouse IgG (control of FIG. 19 study)
[3] = molecular target: full length human PSMA (human) (UniProt Q04609); assay: FACS, 15 ug/ml on LNCaP cells, PE goat anti-mouse IgG (control of FIG. 24 study)
[4] = molecular target: full length human PSMA (human) (UniProt Q04609); assay: FACS, 15 ug/ml on LNCaP cells, PE goat anti-mouse IgG (control of FIG. 29 study)

Chain of full length human PSMA (human) (Q04609 whole entry): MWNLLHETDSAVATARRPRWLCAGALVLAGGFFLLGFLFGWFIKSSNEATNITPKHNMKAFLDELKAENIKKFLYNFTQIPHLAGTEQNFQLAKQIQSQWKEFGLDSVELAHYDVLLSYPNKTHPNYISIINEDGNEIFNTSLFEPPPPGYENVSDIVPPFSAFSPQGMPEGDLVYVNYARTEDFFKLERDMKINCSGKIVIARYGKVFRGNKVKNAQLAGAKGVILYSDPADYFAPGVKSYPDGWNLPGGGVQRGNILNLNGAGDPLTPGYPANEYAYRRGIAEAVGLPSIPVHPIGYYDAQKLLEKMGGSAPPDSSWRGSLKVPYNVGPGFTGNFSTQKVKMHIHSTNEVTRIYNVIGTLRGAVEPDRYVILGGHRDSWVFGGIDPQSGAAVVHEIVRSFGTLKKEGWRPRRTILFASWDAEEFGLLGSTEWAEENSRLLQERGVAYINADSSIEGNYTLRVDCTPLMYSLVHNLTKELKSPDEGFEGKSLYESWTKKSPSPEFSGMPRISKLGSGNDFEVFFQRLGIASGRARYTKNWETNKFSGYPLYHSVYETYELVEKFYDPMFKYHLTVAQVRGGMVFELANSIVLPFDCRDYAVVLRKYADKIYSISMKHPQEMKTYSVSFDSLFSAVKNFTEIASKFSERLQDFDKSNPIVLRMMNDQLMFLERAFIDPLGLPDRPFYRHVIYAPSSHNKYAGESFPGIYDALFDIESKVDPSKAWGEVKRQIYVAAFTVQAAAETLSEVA

A fold-change in MFI over secondary antibody alone [1] of 45.3 fold, a fold change in MFI over secondary antibody alone [2] of 45.3 fold and a fold change in MFI over secondary antibody alone [3] of 45.3 fold were found for “mouse anti-human PSMA monoclonal antibody, clone J591-A” in this work. The fold change in MFI over secondary antibody alone [4] was 14.3 fold.
